What was measured:
[1] = target: anti-TRP-1 antibody (TA99, BioXcell); test: cell-based or functional assay
[2] = target: anti-CD20 antibody (18B12, Absolute antibody); test: cell-based or functional assay

| B16-H2B-tdTomato target cell count after 48 hours co-culture with infected CD8+ T cells and anti-TRP-1 antibody (FIG. 8C; sham: around 750 B16 cells) [1] | Substance | A20 B-cell lymphoma cell death by Annexin-V staining in flow cytometry after co-culture with infected CD8+ T cells and anti-CD20 antibody [2] | killing of B16-H2B-tdTomato target cells by infected CD4+ and CD8+ T cells with anti-TRP-1 antibody, incuCyte target cell numbers after 48 hours; effector : target ratio needed (effector : target ratio (x to 1)) [1] | killing of B16-H2B-tdTomato target cells by infected T cells with anti-TRP-1 antibody, incuCyte; effector : target ratio at which killing was induced (effector : target ratio (x:1)) [1] |
| --- | --- | --- | --- | --- |
| 460 B16 cells | Alpha-gamma-2A-gamma (extracellular and transmembrane domains of FcγRI fused to the intracellular domain of FcRγ, T2A skipping peptide and FcRγ) (receptor) | 20% | – | – |
| 575 B16 cells | Alpha-2A-gamma (extracellular, transmembrane and intracellular domains of FcγRI, T2A skipping peptide and FcRγ) (receptor) | – | > 8 | – |
| – | Alpha-gamma-2A-gamma (extracellular and transmembrane domains of FcγRI fused to the intracellular domain of FcRγ, T2A skipping peptide and FcRγ) | – | – | 2 |

Reference: US20230340070A1
